Measured values published in US7943358B2, “Polymerase enhancing factor (PEF) extracts, PEF protein complexes, isolated PEF protein, and methods for purifying and identifying” (Agilent Technologies, Inc., priority 1997, dated 2011).

Columns and labels:
Taq DNA polymerase = Taq DNA polymerase (Thermus aquaticus, UniProt P19821); assay: PCR with Taq DNA polymerase; type: biochemical
Procedure: FIGS. 33, 34, 35, and 36. Enhancing activity of P. furiosus PEF in PCRs conducted with Pwo (FIG. 33); JDF-3 (FIGS. 34 and 35), ES4 and Vent (FIG. 35). and Deep Vent (FIG. 36) DNA polymerases. In FIG. 33, 25 μl PCRs were conducted using the 6.2 kb test system (example 1) with 25 U/ml Pwo DNA polymerase and 1× cloned Pfu PCR buffer. 1 μl of S200-purified P. furiosus PEF (prep 1; 225 ng/μl) was added undiluted (lane 1) or diluted 1:10 (lane 2), 1:1000 (lane 3), 1:10,000 (lane 4). 1 μl of dilution buffer was added as a negative control (lane 5). In FIG. 34, a 10 kb lambda DNA-target was amplified from lambda DNA (lanes 1-4; 5-7; 11-13) or mouse genomic DNA, containing 40 copies (lanes 8-10) or 1 copy (lanes 14-16) of a lambda DNA transgene. 100 μl PCRs were conducted with 250 ng of lambda DNA (Sigma) or mouse genomic DNA and 250 ng of primers (F51-20 5′[…] (SEQ ID NO: 22); R10163-20 5′CCA-TCT-CAC-GCG-CCA-GTT-TC) (SEQ ID NO: 23). PCRs were conducted in Taq PCR buffer using 5 U Taq DNA polymerase (lanes 1-4) or 1 U JDF3 DNA polymerase (lanes 5-16). 1 μl of the following was added to PCRs: S200-purified PEF (prep. 3; 550 ng/μl PEF) diluted 1:500 (lanes 2, 12, 15), 1:100 (lanes 6, 9), 1:50 (lane 3), 1:10 (lanes 7, 10, 13, 16), or 1:5 (lane 4). 1 μl of dilution buffer was added as a negative control (lanes 1, 5, 8, 11, 14). […]

[1] = Pi detection after reaction with dUTP (method of Heinonen and Lahti); type: biochemical; settings: 900 or 1800 ng PEF, 5 mM dUTP, 1 hour at 72° C.
Procedure: We tested whether inorganic pyrophosphate (PPi) or inorganic phosphate (Pi) was generated during the PEF-catalyzed conversion of dUTP to dUMP (FIG. 16). To assess whether Pi was produced, 900 or 1800 ng of PEF was incubated in the presence of 5 mM dUTP in 1× cloned Pfu polymerase buffer for 1 hour at 72° C. The reaction mixture was subsequently analyzed for the presence of Pi using the method of Heinonen and Lahti (Heinonen; J. K. and Lahti, R. J. (1981) Anal. Biochem. 113: 313-317). […] One hundred percent (100%) conversion corresponds to the production of 500 nmol of Pi, if Pi is a product of the reaction. […] The assay for Pi was sensitive enough to detect as little as about 50 nmoles of Pi.

Taq DNA polymerase, sequence (P19821 whole entry): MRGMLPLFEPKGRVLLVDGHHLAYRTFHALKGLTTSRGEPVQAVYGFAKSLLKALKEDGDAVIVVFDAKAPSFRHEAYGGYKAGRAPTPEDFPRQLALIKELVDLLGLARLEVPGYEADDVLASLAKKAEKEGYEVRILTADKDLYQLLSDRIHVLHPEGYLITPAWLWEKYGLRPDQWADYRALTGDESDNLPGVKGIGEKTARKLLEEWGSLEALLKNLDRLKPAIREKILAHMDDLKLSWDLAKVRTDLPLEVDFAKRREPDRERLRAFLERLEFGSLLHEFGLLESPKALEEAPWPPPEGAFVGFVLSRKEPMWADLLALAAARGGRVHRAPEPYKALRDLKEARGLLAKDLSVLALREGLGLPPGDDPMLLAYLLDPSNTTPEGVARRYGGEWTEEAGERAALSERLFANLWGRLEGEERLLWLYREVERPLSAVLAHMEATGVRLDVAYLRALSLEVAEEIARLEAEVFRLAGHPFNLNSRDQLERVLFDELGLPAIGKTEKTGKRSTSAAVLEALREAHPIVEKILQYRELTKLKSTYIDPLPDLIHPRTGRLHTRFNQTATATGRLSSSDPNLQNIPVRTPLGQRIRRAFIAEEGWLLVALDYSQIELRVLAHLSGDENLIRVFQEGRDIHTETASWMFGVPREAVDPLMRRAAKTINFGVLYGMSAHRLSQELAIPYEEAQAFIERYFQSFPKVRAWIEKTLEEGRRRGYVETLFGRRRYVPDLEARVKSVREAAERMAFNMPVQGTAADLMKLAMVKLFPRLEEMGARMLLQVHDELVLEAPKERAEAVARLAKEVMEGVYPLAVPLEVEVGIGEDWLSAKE

B1: PEF: polymerase enhancing factor complex purified from Pyrococcus furiosus; predominant components P50 and P45 (protein)
chain 1: MLHHVKLIYATKSRKLVGKKIVXXXPGSIAALDVKACEGLIRHGAEVHAVMSEAATKIIHPYAWNLPTGNPVITEITGFIEHVELAGEHENKADLILVCPATANTISKIACGIDDTPVTTVVTTAFPHIPIMIAPAMHETMYRHPIVRENIERLKKLGVEFIGPRIEEGRAKVASIDEIVYRVIKKLHKKTLEGKRVLVTAGATREYIDPIRFITNASSGKMGVALAEEADFRGAVTLIRTKGSVKAFRIRKIKLKVETVEEMLSAIENELRSKKYDVVIMAAAVSDFRPKIKAEGKIKSGRSITIELVPXNPKIIDRIKEIQPNVFLVGFKAETSKEKLIEEGKRQIERAKADLVVGNTLEAFGSEENQVVLIGRDFTKELPKMKKRELAERIWDEIEKXLS
chain 2: MLLPDWKIRKEILIEPFSEESLQPAGYDLRVGREAFVKGKLIDVEKEGKVVIPPREYALILTLERIKLPDDVMGDMKIRSSLAREGVIGSFAWVDPGWDGNLTLMLYNASNEPVELRYGERFVQIAFIRLEGPARNPYRGNYQGSTRLAFSKRKKL
modifications: not fully specified; X: residue not identified in the source
notes: polymerase enhancing factor complex purified from Pyrococcus furiosus; predominant components P50 and P45
Taq DNA polymerase
  yield of PCR products generated with Taq DNA polymerase: may not enhance the yield
[1]
  Pi formed during reaction with dUTP: no Pi was detected
